{"source": "patent US10543259", "proteins": {"B1": {"name": "recombinant wild-type human PAPP-A2 (pregnancy-associated plasma protein-A2) (protein)", "chain": "PPEESNQNGGEGSYREAETFNSQVGLPILYFSGRRERLLLRPEVLAEIPREAFTVEAWVKPEGGQNNPAIIAGVFDNCSHTVSDKGWALGIRSGKDKGKRDARFFFSLCTDRVKKATILISHSRYQPGTWTHVAATYDGRHMALYVDGTQVASSLDQSGPLNSPFMASCRSLLLGGDSSEDGHYFRGHLGTLVFWSTALPQSHFQHSSQHSSGEEEATDLVLTASFEPVNTEWVPFRDEKYPRLEVLQGFEPEPEILSPLQPPLCGQTVCDNVELISQYNGYWPLRGEKVIRYQVVNICDDEGLNPIVSEEQIRLQHEALNEAFSRYNISWQLSVHQVHNSTLRHRVVLVNCEPSKIGNDHCDPECEHPLTGYDGGDCRLQGRCYSWNRRDGLCHVECNNMLNDFDDGDCCDPQVADVRKTCFDPDSPKRAYMSVKELKEALQLNSTHFLNIYFASSVREDLAGAATWPWDKDAVTHLGGIVLSPAYYGMPGHTDTMIHEVGHVLGLYHVFKGVSERESCNDPCKETVPSMETGDLCADTAPTPKSELCREPEPTSDTCGFTRFPGAPFTNYMSYTDDNCTDNFTPNQVARMHCYLDLVYQQWTESRKPTPIPIPPMVIGQTNKSLTIHWLPPISGVVYDRASGSLCGACTEDGTFRQYVHTASSRRVCDSSGYWTPEEAVGPPDVDQPCEPSLQAWSPEVHLYHMNMTVPCPTEGCSLELLFQHPVQADTLTLWVTSFFMESSQVLFDTEILLENKESVHLGPLDTFCDIPLTIKLHVDGKVSGVKVYTFDERIEIDAALLTSQPHSPLCSGCRPVRYQVLRDPPFASGLPVVVTHSHRKFTDVEVTPGQMYQYQVLAEAGGELGEASPPLNHIHGAPYCGDGKVSERLGEECDDGDLVSGDGCSKVCELEEGFNCVGEPSLCYMYEGDGICEPFERKTSIVDCGIYTPKGYLDQWATRAYSSHEDKKKCPVSLVTGEPHSLICTSYHPDLPNHRPLTGWFPCVASENETQDDRSEQPEGSLKKEDEVWLKVCFNRPGEARAIFIFLTTDGLVPGEHQQPTVTLYLTDVRGSNHSLGTYGLSCQHNPLIINVTHHQNVLFHHTTSVLLNFSSPRVGISAVALRTSSRIGLSAPSNCISEDEGQNHQGQSCIHRPCGKQDSCPSLLLDHADVVNCTSIGPGLMKCAITCQRGFALQASSGQYIRPMQKEILLTCSSGHWDQNVSCLPVDCGVPDPSLVNYANFSCSEGTKFLKRCSISCVPPAKLQGLSPWLTCLEDGLWSLPEVYCKLECDAPPIILNANLLLPHCLQDNHDVGTICKYECKPGYYVAESAEGKVRNKLLKIQCLEGGIWEQGSCIPVVCEPPPPVFEGMYECTNGFSLDSQCVLNCNQEREKLPILCTKEGLWTQEFKLCENLQGECPPPPSELNSVEYKCEQGYGIGAVCSPLCVIPPSDPVMLPENITADTLEHWMEPVKVQSIVCTGRRQWHPDPVLVHCIQSCEPFQADGWCDTINNRAYCHYDGGDCCSSTLSSKKVIPFAADCDLDECTCRDPKAEENQ"}, "B2": {"name": "PAPP-A2(A1033V) (protein)", "chain": "B1 chain with A799V"}}, "key": {"[1]": {"target": "T1, recombinant human IGFBP-4, 125I-labeled, P22692", "T1 chain": "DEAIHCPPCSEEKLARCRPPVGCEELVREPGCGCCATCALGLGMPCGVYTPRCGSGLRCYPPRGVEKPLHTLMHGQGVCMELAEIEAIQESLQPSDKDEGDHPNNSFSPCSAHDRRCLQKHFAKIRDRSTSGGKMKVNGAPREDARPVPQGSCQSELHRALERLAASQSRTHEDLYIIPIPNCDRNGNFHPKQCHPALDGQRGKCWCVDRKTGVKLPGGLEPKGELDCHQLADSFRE"}, "[2]": {"target": "recombinant human IGFBP-3, 125I-labeled, P17936", "sequence (P17936 28-291)": "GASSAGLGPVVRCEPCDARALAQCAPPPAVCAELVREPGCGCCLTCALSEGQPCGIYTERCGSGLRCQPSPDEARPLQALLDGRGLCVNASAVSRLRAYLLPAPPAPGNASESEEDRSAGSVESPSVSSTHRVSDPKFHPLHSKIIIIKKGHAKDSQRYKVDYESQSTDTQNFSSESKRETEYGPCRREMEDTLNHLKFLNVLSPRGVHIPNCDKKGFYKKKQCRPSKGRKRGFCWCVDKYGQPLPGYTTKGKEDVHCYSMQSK"}, "[3]": {"target": "recombinant human IGFBP-5, 125I-labeled, P24593", "sequence (P24593 21-272)": "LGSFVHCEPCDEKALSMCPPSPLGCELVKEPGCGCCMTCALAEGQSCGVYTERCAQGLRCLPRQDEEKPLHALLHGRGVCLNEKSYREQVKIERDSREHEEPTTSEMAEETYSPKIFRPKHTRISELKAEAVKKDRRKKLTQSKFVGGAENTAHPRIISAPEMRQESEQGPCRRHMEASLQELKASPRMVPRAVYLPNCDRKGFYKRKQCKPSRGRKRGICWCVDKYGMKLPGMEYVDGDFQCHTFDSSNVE"}}, "note": "Substitutions are numbered along the chain they refer to. Names may count otherwise.", "data": [{"protein": "B1", "values": [{"measurement": "proteolytic cleavage of radiolabeled IGFBP (SDS-PAGE, autoradiography)", "setting": "[1]", "value": "none of the variants cleaved the PAPP-A substrate, IGFBP-4"}, {"measurement": "proteolytic cleavage of radiolabeled IGFBP (SDS-PAGE, autoradiography)", "setting": "[2]", "value": "media from cells transfected with WT PAPP-A2 cDNA completely cleaved these substrates"}, {"measurement": "proteolytic cleavage of radiolabeled IGFBP (SDS-PAGE, autoradiography)", "setting": "[3]", "value": "media from cells transfected with WT PAPP-A2 cDNA completely cleaved these substrates"}]}, {"protein": "B2", "values": [{"measurement": "proteolytic cleavage of radiolabeled IGFBP (SDS-PAGE, autoradiography)", "setting": "[1]", "value": "none of the variants cleaved the PAPP-A substrate, IGFBP-4"}, {"measurement": "proteolytic cleavage at equimolar concentrations of wild type and mutant (6 h reaction)", "setting": "[2]", "value": "at equimolar concentrations (FIG. 3C), it still showed no activity"}, {"measurement": "proteolytic cleavage of radiolabeled IGFBP (SDS-PAGE, autoradiography)", "setting": "[2]", "value": "showed no proteolytic activity towards IGFBP-3 or -5"}, {"measurement": "proteolytic cleavage at equimolar concentrations of wild type and mutant (6 h reaction)", "setting": "[3]", "value": "at equimolar concentrations (FIG. 3C), it still showed no activity"}, {"measurement": "proteolytic cleavage of radiolabeled IGFBP (SDS-PAGE, autoradiography)", "setting": "[3]", "value": "showed no proteolytic activity towards IGFBP-3 or -5"}]}]}
